Test results taken from paper doi:10.1101/2022.07.26.501514.

Biological target: T1, Atg18 wildtype (Autophagy-related protein 18, Saccharomyces cerevisiae) (Saccharomyces cerevisiae), P43601
T1 chain: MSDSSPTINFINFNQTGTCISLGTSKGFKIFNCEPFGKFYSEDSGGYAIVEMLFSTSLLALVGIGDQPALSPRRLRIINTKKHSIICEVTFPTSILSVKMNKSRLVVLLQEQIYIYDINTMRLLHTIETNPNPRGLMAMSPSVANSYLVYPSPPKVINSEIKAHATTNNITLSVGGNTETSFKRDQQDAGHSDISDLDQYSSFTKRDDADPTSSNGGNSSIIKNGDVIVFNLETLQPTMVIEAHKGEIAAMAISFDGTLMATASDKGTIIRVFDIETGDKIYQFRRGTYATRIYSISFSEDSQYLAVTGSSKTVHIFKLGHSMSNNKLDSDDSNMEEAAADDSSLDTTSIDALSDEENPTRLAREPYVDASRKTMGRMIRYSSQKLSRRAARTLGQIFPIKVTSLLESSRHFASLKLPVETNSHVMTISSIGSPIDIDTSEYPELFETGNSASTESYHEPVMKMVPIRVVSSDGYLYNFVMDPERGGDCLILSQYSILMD
Test: single-particle cryo-EM, 2D classification
Conditions: remark: other sources report otherwise

stoichiometry N: 2
B1: Atg18 wildtype (Autophagy-related protein 18, Saccharomyces cerevisiae), P43601 1-500 (natural protein)
chain: MSDSSPTINFINFNQTGTCISLGTSKGFKIFNCEPFGKFYSEDSGGYAIVEMLFSTSLLALVGIGDQPALSPRRLRIINTKKHSIICEVTFPTSILSVKMNKSRLVVLLQEQIYIYDINTMRLLHTIETNPNPRGLMAMSPSVANSYLVYPSPPKVINSEIKAHATTNNITLSVGGNTETSFKRDQQDAGHSDISDLDQYSSFTKRDDADPTSSNGGNSSIIKNGDVIVFNLETLQPTMVIEAHKGEIAAMAISFDGTLMATASDKGTIIRVFDIETGDKIYQFRRGTYATRIYSISFSEDSQYLAVTGSSKTVHIFKLGHSMSNNKLDSDDSNMEEAAADDSSLDTTSIDALSDEENPTRLAREPYVDASRKTMGRMIRYSSQKLSRRAARTLGQIFPIKVTSLLESSRHFASLKLPVETNSHVMTISSIGSPIDIDTSEYPELFETGNSASTESYHEPVMKMVPIRVVSSDGYLYNFVMDPERGGDCLILSQYSILMD
